From patent US20240000961A1, “ANTIBODY-BASED CONJUGATE FOR ENHANCING THERAPEUTIC EFFECT OF TARGETED THERAPEUTIC AGENT” (THE CATHOLIC UNIVERSITY OF KOREA INDUSTRY-ACADEMIC …, priority 2020, published 2024)

Key:
L929 normal cells = format: cell-based; settings: for toxicity: L929, at a concentration less than 10 μl/ml; for cytotoxicity: L929 normal cells, MTT, treated 4 hours then cultured 1 day
Description: (§3) Thereafter, the cells were washed with a buffer solution, and further cultured for 1 day by adding a clean medium thereto.
(§4) The cultured cells were treated with MTT reagent and further cultured for 3 hours, then the culture solution and the MTT reagent were both removed, and dimethyl sulfoxide was added to dissolve formazan formed in the cells. Thereafter, absorbance was measured at 570 nm to compare the amounts of formazan formed and analyze the viability and cytotoxicity of cancer cells.

NIH3T3 normal cells = format: cell-based; settings: for toxicity: NIH3T3, at a concentration less than 10 μl/ml; for cytotoxicity: NIH3T3 normal cells, MTT, treated 4 hours then cultured 1 day
Description: as §3, §4

[1] = tested on: A549 lung cancer cell line expressing PD-L1; format: cell-based
Description: (§1) Thereafter, the viability and cytotoxicity of cells were analyzed in the same manner as in Experimental Example 2-1.
(§2) Lung cancer and colorectal cancer cell lines expressing PD-L1 (A549 and HCT116, respectively) were cultured, and then treated with an avelumab-succinyl-Pluronic conjugate. Thereafter, the viability and cytotoxicity of cells were analyzed in the same manner as in Experimental Example 2-1.

[2] = tested on: HCT116 (HCTE116) colorectal cancer cell line expressing PD-L1; format: cell-based
Description: as §1, §2

[3] = tested on: SKOV3 cells, ovarian cell line expressing the EGFR
Description: as §3, §4

[4] = tested on: NIH-3T3 cells (do not express EGFR); settings: NIH-3T3, 2 hours, flow cytometer; non-specific inflow
Description: Thereafter, the cells were washed with a buffer solution and the targeting ability to each type of cell was analyzed by a flow cytometer.

Substance	toxicity (L929 normal cells)	toxicity (NIH3T3 normal cells)	cytotoxicity (L929 normal cells)	cytotoxicity (NIH3T3 normal cells)	also measured
avelumab-maleimide-Pluronic F127 [AVE-Mal-PF127]	non-toxic	non-toxic	–	–	–
avelumab-succinyl-Pluronic F127 [AVE-Suc-PF127]	–	–	–	–	cytotoxicity compared to avelumab antibody alone (AVE) or AVE-Suc-PEG2K/PEG5K [1]: greater increase in cytotoxicity; cytotoxicity compared to avelumab antibody alone (AVE) or AVE-Suc-PEG2K/PEG5K [2]: greater increase in cytotoxicity
avelumab-maleimide-polyethylene glycol 6K [AVE-Mal-PEG6K, reference compound]	non-toxic	non-toxic	–	–	–
maleimide-Pluronic F68 [Mal-PF68]	–	–	–	–	cytotoxicity [3]: non-cytotoxic
maleimide-polyethylene glycol 2K-chlorin e6 [Mal-PEG2K-Ce6, reference compound]	–	–	–	–	fluorescence signals compared to CTX-Mal-PF68-Ce6 or CTX-Mal-PEG2K-Ce6 treatment group [4]: increased
avelumab-maleimide-Pluronic F68 [AVE-Mal-PF68]	non-toxic	non-toxic	–	–	–
ramucirumab-maleimide-Pluronic F68 [RAM-Mal-PF68]	–	–	non-toxic	non-toxic	–
maleimide-Pluronic F68-chlorin e6 [Mal-PF68-Ce6]	–	–	–	–	fluorescence signals compared to CTX-Mal-PF68-Ce6 or CTX-Mal-PEG2K-Ce6 treatment group [4]: increased
ramucirumab-maleimide-polyethylene glycol 2K [RAM-Mal-PEG2K, reference compound]	–	–	non-toxic	non-toxic	–
avelumab-maleimide-polyethylene glycol 2K [AVE-Mal-PEG2K, reference compound]	non-toxic	non-toxic	–	–	–
avelumab-succinyl-Pluronic F68 [AVE-Suc-PF68]	–	–	–	–	cytotoxicity compared to avelumab antibody alone (AVE) or AVE-Suc-PEG2K/PEG5K [1]: greater increase in cytotoxicity; cytotoxicity compared to avelumab antibody alone (AVE) or AVE-Suc-PEG2K/PEG5K [2]: greater increase in cytotoxicity
ramucirumab-maleimide-Pluronic F127 [RAM-Mal-PF127]	–	–	non-toxic	non-toxic	–
ramucirumab-maleimide-polyethylene glycol 6K [RAM-Mal-PEG6K, reference compound]	–	–	non-toxic	non-toxic	–
